B1: Azoarcus group I ribozyme (parent)
chain: GUGCCUUGCGCCGGGAAACCACGCAAGGGAUGGUGUCAAAUUCGGCGAAACCUAAGCGCCCGCCCGGGCGUAUGGCAACGCCGAGCCAAGCUUCGGCGCCUGCGCCGAUGAAGGUGUAGAGACUAGACGGCACCCACCUAAGGCAAACGCUAUGGUGAAGGCAUAGUCCAGGGAGUGGCGAAAGUCACACAAACCGG

Variants of: B1
Assay: reverse-splicing fitness (ratio to wild type); higher = more active; in vitro selection; Mg2+ level not given
How it was run: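 An in vitro group I ribozyme library with randomized positions was T7-transcribed and gel-purified. In triplicate, 10 pmol RNA in EPPS pH 7.5 was reacted with 50 pmoles of a 30-nt RNA substrate for 1 h at 37 °C across several added MgCl2 levels (1–48 mM), then stopped with EDTA. Products were reverse transcribed from a substrate-complementary primer, PCR-amplified and sequenced (HiSeq 4000). Fitness is a variant's read proportion after selection over that before, normalised to wild type.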

In order of rising reverse-splicing fitness:
1. C82A A111U A120U A145C C169G U176G  0.00198
2. C82A A111U A120U A145U C169G U176G  0.00199
3. C82A A111U A120U A145U C150A C169G U176G  0.00203
4. C82A A111U A120U C150A C169U U176G  0.00224
5. C82A A111U A120U A145C C169G U176C  0.00232
6. C82A A111U A120U A145G C169A U176G  0.00239
7. C82A A111U A120U A145U C150A C169U U176G  0.00245
8. C82A A111U A120U A145C C150U C169G U176G  0.00248
9. C82A A111U A120U A145C C150A U176G  0.00255
10. C82A A111U A120U A145C C150G U176G  0.00265
11. C82A A111U A120U A145C C150U C169G U176C  0.00274
12. C82A A111U A120U A145U C150A C169U U176C  0.00277
13. C82A A111U A120U A145C C169G U176A  0.00281
14. C82A A111U A120U A145C C150G C169U U176C  0.00285
15. C82A A111U A120U A145U C150A C169G U176C  0.00291
16. C82A A111U A120U A145U C169G U176A  0.00291
17. C82A A111U A120U A145U C150U C169U U176G  0.00299
18. C82A A111U A120U A145C C150G C169U U176G  0.00301
19. C82A A111U A120U A145U C150G C169U U176A  0.00308
20. C82A A111U A120U C150G C169A U176G  0.00311
21. C82A A111U A120U A145C C150G C169U U176A  0.00314
22. C82A A111U A120U A145U C150A C169U U176A  0.00317
23. C82A A111U A120U A145U C169G U176C  0.00323
24. C82A A111U A120U A145C C150G U176A  0.00326
25. C82A A111U A120U A145G C150A C169U U176G  0.00326
26. C82A A111U A120U A145U C150G C169U  0.00332
27. C82A A111U A120U A145U C150U C169U U176A  0.00333
28. C82A A111U A120U A145U C150A C169G U176A  0.00333
29. C82A A111U A120U A145U C150U C169U U176C  0.00339
30. C82A A111U A120U C150U U176G  0.00345
31. C82A A111U A120U A145G C169A U176C  0.00356
32. C82A A111U A120U A145C C150U C169G U176A  0.00366
33. C82A A111U A120U A145U C150G C169G  0.00379
34. C82A A111U A120U A145G C169A U176A  0.00409
35. C82A A111U A120U A145C C150G U176C  0.00415
36. C82A A111U A120U C169A  0.00416
37. C82A A111U A120U A145C C150A U176C  0.00426
38. C82A A111U A145C C150G U176G  0.00428
39. C82A A111U A120U A145G C150G U176G  0.00434
40. C82A A111U A120U C169G  0.00434
41. C82A A111U A120U A145U C150G C169A  0.00467
42. C82A A111U A120U C150A C169U U176C  0.00489
43. C82A A111U A120U C150A C169U  0.00495
44. C82A A111U A120U C169U  0.00502
45. C82A A111U A120U C150A C169G  0.00511
46. C82A A111U A120U A145G C150G C169U U176G  0.00513
47. C82A A111U A120U A145G C150A C169U U176C  0.00543
48. C82A A111U A120U C150G C169A U176C  0.00557
49. C82A A111U A120U C150A C169U U176A  0.00587
50. C82A A111U A120U C150A C169A  0.00615
51. C82A A111U A120U C150G C169A U176A  0.00623
52. C82A A111U A120U A145G C150A C169U U176A  0.00626
53. C82A A111U A120U A145G C150U C169U  0.00663
54. C82A A111U A120U A145G C150G U176A  0.00697
55. C82A A111U A145C C169A U176G  0.00702
56. C82A A111U A120U A145G C150U C169A  0.00728
57. C82A A111U A120U A145G C150U C169G  0.00728
58. C82A A111U A145C C150G C169G  0.00746
59. C82A A111U A120U C150U U176A  0.00753
60. C82A A111U A145C C150A C169A U176C  0.00757
61. C82A A111U A120U C150G  0.00757
62. C82A A111U A145G C150G C169U U176G  0.00787
63. C82A A111U A145C C169A U176C  0.00816
64. C82A A111U A145C C150G C169A  0.00825
65. C82A A111U A145C C150A C169A U176G  0.00855
66. C82A A111U A120U A145G C150G C169U U176A  0.00862
67. C82A A111U A120U C150A  0.00876
68. C82A A111U A120U A145G C150G C169U U176C  0.0089
69. C82A A111U A120U A145G C150G U176C  0.00894
70. C82A A111U A145G C150G C169A U176G  0.0091
71. C82A A111U A145G C150A C169G  0.00916
72. C82A A111U A120U C150U U176C  0.00953
73. C82A A111U A145C C150G C169U  0.00999
74. C82A A111U A145C C150G U176A  0.0104
75. C82A A111U A145C C169A U176A  0.0109
76. C82A A111U A145G C150A C169U  0.0111
77. C82A A111U A145G C150A C169A  0.0117
78. C82A A111U A145G C150G C169U U176A  0.0134
79. C82A A111U A145G C150G C169A U176C  0.0137
80. C82A A111U A145G C150G C169A U176A  0.0138
81. C82A A111U A145G C150G C169U U176C  0.0142
82. C82A A111U A145C C150A C169A U176A  0.0149
83. C82A A111U A120U C150U  0.016
84. C82A A111U A145C C150G U176C  0.0163
